The text below walks through data of article doi:10.1101/2022.12.07.519389 (bioRxiv, 2022).

This series concerns the molecule itself. Put plainly: negative-stain EM + ThT fluorescence.

B1: CPEB3 residues 1-217 (prion-like domain 1 construct) (domain or fragment)
chain: MQDDLLMDKSKTQPQPQQQQRQQQQPQPESSVSEAPSTPLSSETPKPEENSAVPALSPAAAPPAPNGPDKMQMESPLLPGLSFHQPPQQPPPPQEPAAPGASLSPSFGSTWSTGTTNAVEDSFFQGITPVNGTMLFQNFPHHVNPVFGGTFSPQIGLAQTQHHQQPPPPAPAPQPAQPAQPPQAQPPQQRRSPASPSQAPYAQRSAAAAYGHQPIMT
With B1, the binding result was “binds”.
